From patent US20240270825A1 (CENTIVAX, published 2024)
Residue numbers refer to the chain shown, from its start.

T1: MERS Receptor Binding Domain (RBD) protein (Middle East Respiratory Syndrome (MERS) …, UniProt K9N5Q8 367-606)
T1 construct: also called Middle East Respiratory Syndrome (MERS) virus
T1 sequence: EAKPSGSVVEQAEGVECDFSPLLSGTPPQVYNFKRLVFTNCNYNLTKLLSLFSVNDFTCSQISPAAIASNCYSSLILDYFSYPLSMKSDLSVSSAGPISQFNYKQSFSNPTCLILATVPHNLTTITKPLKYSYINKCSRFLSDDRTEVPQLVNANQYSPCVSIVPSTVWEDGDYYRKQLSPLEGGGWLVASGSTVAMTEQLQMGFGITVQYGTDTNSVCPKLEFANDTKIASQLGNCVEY

B1: COVID19_P21_F11 (scFv, V domains shown)
VH: QVQLVQSGAEVKKPGSSVKVSCKASGGTFSSYAISWVRQAPGQGLEWMGIIYPGDSTARYSQKFQGRVTITADESTSTAYMELSSLRSEDTAVYYCAGGSGISTLYDVWGQGTLVTVSS
VL: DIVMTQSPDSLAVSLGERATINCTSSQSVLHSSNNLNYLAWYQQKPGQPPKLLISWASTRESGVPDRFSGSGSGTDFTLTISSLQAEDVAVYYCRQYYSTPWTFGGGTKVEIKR
B2: COVID19_P09_C09 (scFv, V domains shown)
VH: QVQLVQSGAEVKKPGSSVKVSCKASGGTFSSYAISWVRQAPGQGLEWMGIIDPSGGSTSYAQQFQGRVTITADESTSTAYMELSSLRSEDTAVYYCAGGSGISTPMDVWGQGTLVTVSS
VL: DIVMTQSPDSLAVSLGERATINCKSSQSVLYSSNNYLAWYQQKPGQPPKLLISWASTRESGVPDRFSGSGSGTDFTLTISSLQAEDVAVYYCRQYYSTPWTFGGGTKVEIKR
B3: COVID19_P22_F07 (scFv, V domains shown)
VH: QVQLVQSGAEVKKPGSSVKVSCKASGGTFSSYAISWVRQAPGQGLEWMGGIIPIFGSTASYAQKFQGRVTITADESTSTAYMELSSLRSEDTAVYYCAGEWGISTPMDVWGQGTLVTVSS
VL: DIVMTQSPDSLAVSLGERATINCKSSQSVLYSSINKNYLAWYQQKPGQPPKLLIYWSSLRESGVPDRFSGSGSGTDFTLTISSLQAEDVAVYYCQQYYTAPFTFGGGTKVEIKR
B4: COVID19_P22_B12 (scFv, V domains shown)
VH: B1 VH with F29L, T57E, A58T, L105P, Y106R, D107S
VL: DIVMTQSPDSLAVSLGERATINCKSSRILSYSPDNKNYLAWYQQKPGQPPKLLIYWASTRESGVPDRFSGSGSGTDFTLTISSLQAEDVAVYYCQQSYITPYTFGGGTKVEIKR
B5: COVID19_P21_F04 (scFv, V domains shown)
VH: B2 VH with I50Q, D52N, G56D, S59R, Q63K
VL: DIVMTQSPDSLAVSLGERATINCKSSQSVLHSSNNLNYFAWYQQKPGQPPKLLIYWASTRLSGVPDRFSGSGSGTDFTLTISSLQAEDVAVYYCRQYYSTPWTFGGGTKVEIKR
B6: COVID19_P09_E11 (scFv, V domains shown)
VH: B1 VH with S31N, Y32H, P41Y, S56G, A58T, L105P, Y106M
VL: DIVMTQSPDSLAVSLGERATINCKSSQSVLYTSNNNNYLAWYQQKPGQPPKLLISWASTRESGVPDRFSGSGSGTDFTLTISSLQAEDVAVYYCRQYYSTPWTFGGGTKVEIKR
B7: COVID19_P21_E12 (scFv, V domains shown)
VH: QVQLVQSGAEVKKPGSSVKVSCKASGGTFISYAISWVRQAPGQGLEWMGGIIPTLGTYNYAQKFQGRVTITADESTSTAYMELSSLRSEDTAVYYCAGSWGISTPMDVWGQGTLVTVSS
VL: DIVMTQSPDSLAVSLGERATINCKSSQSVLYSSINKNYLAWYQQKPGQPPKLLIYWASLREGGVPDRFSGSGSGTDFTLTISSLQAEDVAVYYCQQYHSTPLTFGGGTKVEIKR
B8: COVID19_P21_B08 (scFv, V domains shown)
VH: B2 VH with I50V, D52N, P53T, S54G, T58V, S59T, Q63K, G99H, S100W
VL: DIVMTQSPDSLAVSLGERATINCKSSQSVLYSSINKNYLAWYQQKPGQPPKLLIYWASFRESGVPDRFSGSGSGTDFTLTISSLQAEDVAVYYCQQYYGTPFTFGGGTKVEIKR
B9: COVID19_P21_A12 (scFv, V domains shown)
VH: B7 VH with I30S, G50S, I51V, T54V, L55F, T57R, Y58P, S99E
VL: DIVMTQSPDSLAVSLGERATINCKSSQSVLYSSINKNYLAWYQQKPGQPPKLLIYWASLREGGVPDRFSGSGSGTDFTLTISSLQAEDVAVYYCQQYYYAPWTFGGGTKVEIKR
B10: COVID19_P22_E12 (scFv, V domains shown)
VH: B7 VH with I30S, S35N, T54V, G56H, Y58V, N59D, K63R, F64L, S99E
VL: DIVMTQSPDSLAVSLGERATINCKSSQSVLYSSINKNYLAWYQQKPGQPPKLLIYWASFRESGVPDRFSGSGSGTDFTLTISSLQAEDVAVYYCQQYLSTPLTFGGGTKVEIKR
B11: COVID19_P21_F08 (scFv, V domains shown)
VH: QVQLVQSGAEVKKPGSSVKVSCKASGGTFSTYAFNWVRQAPGQGLEWMGVINTGGGSVTYAQKFQGRVTITADESTSTAYMELSSLRSEDTAVYYCAGGSGISTPGAVWGQGTLVTVSS
VL: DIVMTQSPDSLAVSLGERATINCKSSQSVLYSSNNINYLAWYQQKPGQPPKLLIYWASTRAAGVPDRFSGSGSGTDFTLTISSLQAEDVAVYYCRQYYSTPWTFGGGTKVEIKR

biological target: SARS-CoV-2 Receptor Binding Domain (RBD) protein (SARS-CoV-2, UniProt P0DTC2 319-541); assay: SPR Carterra LSA, scFv captured via anti-V5, 1:1 fit

Binder	Kd [nM]	koff [s⁻¹]
B1	1.1	5.7e-05

biological target: T2, SARS-CoV-1 Receptor Binding Domain (RBD) protein (SARS-CoV-1, UniProt P59594 306-527); assay: SPR Carterra LSA, scFv captured via anti-V5
T2 construct: also called SARS1

Binder	binding result
B2	no binding (tested: 300 nM)
B3	no binding (tested: 300 nM)
B1	no binding (tested: 300 nM)
B4	no binding (tested: 300 nM)
B5	no binding (tested: 300 nM)
B6	no binding (tested: 300 nM)
B7	no binding (tested: 300 nM)
B8	no binding (tested: 300 nM)
B9	no binding (tested: 300 nM)
B10	no binding (tested: 300 nM)
B11	no binding (tested: 300 nM)

biological target: T1, MERS Receptor Binding Domain (RBD) …; assay: SPR Carterra LSA, scFv captured via anti-V5

Binder	binding result
B2	no binding (tested: 300 nM)
B3	no binding (tested: 300 nM)
B1	no binding (tested: 300 nM)
B4	no binding (tested: 300 nM)
B5	no binding (tested: 300 nM)
B6	no binding (tested: 300 nM)
B7	no binding (tested: 300 nM)
B8	no binding (tested: 300 nM)
B9	no binding (tested: 300 nM)
B10	no binding (tested: 300 nM)
B11	no binding (tested: 300 nM)
